Assay results as given in PMC8599813, “Investigating molecular mechanisms of 2A-stimulated ribosomal pausing and frameshifting in Theilovirus”.

Key:
[1] = molecular target: Theiler's murine encephalomyelitis virus (TMEV) 2A protein (Theiler's murine encephalomyelitis virus (TMEV)); assay: SEC-MALS; Superdex 75 increase 10/300 GL, 20 mM Tris (HCl) pH 7.5, 1.0 M NaCl, 25°C; 100 µl injected at 3.1, 0.8 and 0.38 mg/ml (200, 51.5 and 24.5 µM); Figure 1B at 3.1 mg/ml; monomer and trimer peaks
TMEV 2A [2] = molecular target: T1, TMEV 2A (Theiler's murine encephalomyelitis …, UniProt P08545 923-1055); assay: MST; ~140 mM NaCl; EMSA: 10 mM Tris pH 7.4, ~140 mM NaCl, 2 mM Mg acetate, 1 mM DTT, 5% glycerol, tRNA, 50 nM RNA, 37 C 20 min; MST: buffer stated as 1x of 20 mM Tris pH 7.4/80 mM NaCl/4 mM Mg acetate/2 mM DTT (2x), ~140 mM NaCl final, 5 nM RNA, 25 C; ITC: 50 mM Tris pH 7.4, 400 mM NaCl, 25 C; conditions: protein: recombinant, tags: GST cleaved (3C protease), N-terminal GPLGS remnant, label: 5' Cy5 (EMSA, MST); for Kd: stem-loop/pseudoknot-like
T1 sequence: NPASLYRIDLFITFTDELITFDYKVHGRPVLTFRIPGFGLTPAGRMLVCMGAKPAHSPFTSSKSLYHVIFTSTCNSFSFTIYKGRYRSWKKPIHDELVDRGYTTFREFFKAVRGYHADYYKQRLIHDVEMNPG

TMEV 2A [3] = molecular target: T1, TMEV 2A; assay: EMSA; EMSA: 10 mM Tris pH 7.4, ~140 mM NaCl, 2 mM Mg acetate, 1 mM DTT, 5% glycerol, tRNA, 50 nM RNA, 37 C 20 min; MST: buffer stated as 1x of 20 mM Tris pH 7.4/80 mM NaCl/4 mM Mg acetate/2 mM DTT (2x), ~140 mM NaCl final, 5 nM RNA, 25 C; ITC: 50 mM Tris pH 7.4, 400 mM NaCl, 25 C; conditions: protein: recombinant, tags: GST cleaved (3C protease), N-terminal GPLGS remnant, label: 5' Cy5
TMEV 2A [4] = molecular target: T1, TMEV 2A; assay: EMSA; ~140 mM NaCl, tRNA; EMSA: 10 mM Tris pH 7.4, ~140 mM NaCl, 2 mM Mg acetate, 1 mM DTT, 5% glycerol, tRNA, 50 nM RNA, 37 C 20 min; MST: buffer stated as 1x of 20 mM Tris pH 7.4/80 mM NaCl/4 mM Mg acetate/2 mM DTT (2x), ~140 mM NaCl final, 5 nM RNA, 25 C; ITC: 50 mM Tris pH 7.4, 400 mM NaCl, 25 C; conditions: protein: recombinant; tags: GST cleaved (3C protease); N-terminal GPLGS remnant; label: 5' Cy5 (EMSA, MST); hairpin, 7 bp stem
TMEV 2A [5] = molecular target: T1, TMEV 2A; assay: ITC; 400 mM NaCl; ~1:1 stoichiometry; EMSA: 10 mM Tris pH 7.4, ~140 mM NaCl, 2 mM Mg acetate, 1 mM DTT, 5% glycerol, tRNA, 50 nM RNA, 37 C 20 min; MST: buffer stated as 1x of 20 mM Tris pH 7.4/80 mM NaCl/4 mM Mg acetate/2 mM DTT (2x), ~140 mM NaCl final, 5 nM RNA, 25 C; ITC: 50 mM Tris pH 7.4, 400 mM NaCl, 25 C; conditions: protein: recombinant; tags: GST cleaved (3C protease); N-terminal GPLGS remnant; label: 5' Cy5 (EMSA, MST); none (ITC, SEC-MALS); stem-loop/pseudoknot-like

Theiler's murine encephalomyelitis virus (TMEV) 2A protein (natural protein)
stoichiometry N [1]: 3

B1: TMEV 1 (structured_RNA)
RNA: CCACAAGGUGCGGUGCUAACUAAAUCCCUAGCACCCCAGGCAGGAA
Kd (TMEV 2A [2]): 0.484 ± 0.09 µM

B2: TMEV 1 G17C+C38G (structured_RNA)
RNA: CCACAACGUGCGGUGCUAACUAAAUCCGUAGCACCCCAGGCAGGAA
binding result (TMEV 2A [3]; compensatory pair 17-38): no binding

B3: TMEV 8 (structured_RNA)
RNA: ACAAGGUGCGGUGCUAACUAAAUCCCUAGCACCCC
binding result (TMEV 2A [3]; stem-loop/pseudoknot-like): binds

B4: TMEV 12 (structured_RNA)
RNA: GGUGCGGUGCUAACUAAAUCCCUAGCACCCC
binding result (TMEV 2A [3]; stem-loop): no binding

B5: TMEV 9 (structured_RNA)
RNA: CAAGGUGCGGUGCUAACUAAAUCCCUAGCACCCC
binding result (TMEV 2A [3]; pseudoknot-like, G17-C38 pair): binds

B6: TMEV 9 G17C (structured_RNA)
RNA: CAACGUGCGGUGCUAACUAAAUCCCUAGCACCCC
binding result (TMEV 2A [3]; stem-loop): no binding

B7: TMEV 9 G17C+C38G (structured_RNA)
RNA: CAACGUGCGGUGCUAACUAAAUCCGUAGCACCCC
binding result (TMEV 2A [3]; compensatory pair 17-38): no binding

B8: TMEV 4 (structured_RNA)
RNA: GCGGUGCUAACUAAAUCCCUAGCACCCC
binding result (TMEV 2A [4]): no binding

B9: TMEV 2 (structured_RNA)
RNA: GCGGUGCUAACUAAAUCCCUAGCACCCCAGGCAGGAA
binding result (TMEV 2A [2]; hairpin): no binding

B10: TMEV 3 (structured_RNA)
RNA: GGGUUUUUCAGCCACAAGGUGCGGUGCUAACUAAAUCCCUAGCACCCC
Kd (TMEV 2A [2]): 0.495 ± 0.11 µM

B11: TMEV 6 (structured_RNA)
RNA: CCACAAGGUGCGGUGCUAACUAAAUCCCUAGCACCCC
Kd (TMEV 2A [5]): 0.067 ± 0.007 µM
Kd (TMEV 2A [2]; none (ITC, SEC-MALS)): 0.28 ± 0.04 µM

B12: TMEV 7 (structured_RNA)
RNA: CACAAGGUGCGGUGCUAACUAAAUCCCUAGCACCCC
binding result (TMEV 2A [3]; stem-loop/pseudoknot-like): binds
